In PMC10448171, “Photocycle alteration and increased enzymatic activity in genetically modified photoactivated adenylate cyclase OaPAC” (The Journal of Biological Chemistry, 2023):
Numbering of substitutions follows the chain as printed. Names may count otherwise.

Substrate: Nc1ncnc2c1ncn2[C@@H]1O[C@H](COP(=O)(O)OP(=O)(O)OP(=O)(O)O)[C@@H](O)[C@H]1O
Test: EnzChek pyrophosphate coupled assay, A360, Michaelis-Menten fit
Type: biochemical, Oxynema acuminatum
Details: continuous illumination; 0-500 μM ATP; 1 μM enzyme
Text: EnzChek pyrophosphate coupled assay, A360, Michaelis-Menten fit on OaPAC

B1: OaPAC (Oxynema acuminatum PCC 6304; D67N) (protein)
chain: MKRLTYISKFSRPLSGDEIEAIGRISSQKNQQANVTGVLLCLDGIFFQILEGEAEKIDRIYERILANERHTDILCLKSEVEVQERMFPDWSMQTINLDENTDFLIRPIKVLLQTLTESHRILEKYTQPSIFKIISQGTNPLNIRPKAVEKIVFFSDIVSFSTFAEKLPVEEVVSVVNSYFSVCTAIITRQGGEVTKFIGDCVMAYFDGDCADQAIQASLDILMELEILRNSAPEGSPLRVLYSGIGLAKGKVIEGNIGSELKRDYTILGDAVNVAARLEALTRQLSQALVFSSEVKNSATKSWNFIWLTDSELKGKSESIDIYSIDNEMTRKSSGGLEIARNIGHYLERVGDRQPSQIFGVKSLPL
notes: full-length, 366 residues, homodimer; N-terminal BLUF domain and C-terminal class III AC domain; pCold-I (Ni-NTA purified), E. coli BL21(DE3); Superdex 200
Km: 41 ± 5 µM
Vmax: 0.100 ± 0.002 mM/min
kcat: 0.8342 s⁻¹

B2: OaPAC (Oxynema acuminatum PCC 6304) (protein)
chain: B1 chain with N67D
notes: as for B1
Km: 31 ± 1 µM
Vmax: 0.064 ± 0.007 mM/min
kcat: 0.537 s⁻¹
